{
  "source": "the supplement of paper PMC10724198",
  "note": "± gives the standard deviation of the averaged measurements.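 Further: PSI is a weighted mean of sequencing reads over stability bins, variants kept only with over 10 reads, mCherry proximal and sfGFP distal, peptide attached via GGGS linker.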",
  "data": [
    {"test_system": "Saccharomyces cerevisiae", "assay": "protein stability index of tFT-peptide fusion (C-terminal peptide) (PSI (0-1 scale)); higher = more stable (slower turnover)", "conditions": "genetic background: wild type; temperature: 30 C", "values": [
      {"sequence": "RAREFRSRNIGD", "protein stability index": "0.74 ± 0.0058"},
      {"sequence": "RASPVSSFSPPS", "protein stability index": "0.679 ± 0.041"},
      {"sequence": "RATMFFLFPMFP", "protein stability index": "0.622 ± 0.024"},
      {"sequence": "RAVESPDKSSCE", "protein stability index": "0.664 ± 0.11"},
      {"sequence": "RAVPLLPRVLFW", "protein stability index": "0.6819 ± 0.0047"},
      {"sequence": "RCACLSCSFLLQ", "protein stability index": "0.679 ± 0.017"},
      {"sequence": "RCALATTNHPRS", "protein stability index": "0.718 ± 0.056"},
      {"sequence": "RCHIPGRIVKTR", "protein stability index": "0.628 ± 0.046"},
      {"sequence": "RCKYLPSSRGMI", "protein stability index": "0.675 ± 0.011"},
      {"sequence": "RCLSVLGLFVGW", "protein stability index": "0.634 ± 0.033"},
      {"sequence": "RCNFHILEIRKY", "protein stability index": "0.667 ± 0.0057"},
      {"sequence": "RCRGSSWLLLCA", "protein stability index": "0.518 ± 0.016"},
      {"sequence": "RCRRTTFIELKL", "protein stability index": "0.595 ± 0.048"},
      {"sequence": "RCSYIGSAGSFF", "protein stability index": "0.732 ± 0.024"},
      {"sequence": "RCTLPLSPSCSR", "protein stability index": "0.6604 ± 0.0037"},
      {"sequence": "RCVLWSVLSTQV", "protein stability index": "0.672 ± 0.042"},
      {"sequence": "RDECLRVLAPLR", "protein stability index": "0.726 ± 0.024"},
      {"sequence": "RDFCLGFANTVC", "protein stability index": "0.642 ± 0.028"},
      {"sequence": "RDKAVAGKKGGS", "protein stability index": "0.682 ± 0.017"},
      {"sequence": "RDKIRMIDSYLT", "protein stability index": "0.696 ± 0.025"},
      {"sequence": "RDLLPPLYLPSH", "protein stability index": "0.711 ± 0.039"},
      {"sequence": "RDPWESLDRCYP", "protein stability index": "0.698 ± 0.034"},
      {"sequence": "RDTAPPPPPALL", "protein stability index": "0.788 ± 0.08"},
      {"sequence": "REGSIISYPASG", "protein stability index": "0.6989 ± 0.0019"},
      {"sequence": "RENGKIIKKRKK", "protein stability index": "0.694 ± 0.026"},
      {"sequence": "RERVQYICYERR", "protein stability index": "0.695 ± 0.086"},
      {"sequence": "RERVVSVKLGGG", "protein stability index": "0.688 ± 0.018"},
      {"sequence": "RETSRNCGKVST", "protein stability index": "0.745 ± 0.043"},
      {"sequence": "REWGWGALVMWG", "protein stability index": "0.638 ± 0.042"},
      {"sequence": "RFGGSGGLPGGW", "protein stability index": "0.665 ± 0.031"},
      {"sequence": "RFGLRVLGGACR", "protein stability index": "0.591 ± 0.071"},
      {"sequence": "RFGSGKCLALRG", "protein stability index": "0.689 ± 0.066"},
      {"sequence": "RFGSLKWGRGCI", "protein stability index": "0.6759 ± 0.0044"},
      {"sequence": "RFKCVKPPLPRR", "protein stability index": "0.715 ± 0.03"},
      {"sequence": "RFLDVSRYAGGV", "protein stability index": "0.705 ± 0.025"},
      {"sequence": "RFLISYFYKVIR", "protein stability index": "0.56 ± 0.034"},
      {"sequence": "RFQWAFMSWSEP", "protein stability index": "0.823 ± 0.064"},
      {"sequence": "RFRCGLPMQERT", "protein stability index": "0.689 ± 0.064"},
      {"sequence": "RFRGYWSWGMTL", "protein stability index": "0.777 ± 0.13"},
      {"sequence": "RFVAFDFLGISL", "protein stability index": "0.736 ± 0.2"},
      {"sequence": "RFVHCRRKVAKR", "protein stability index": "0.667 ± 0.047"},
      {"sequence": "RFWDMGGYAGGL", "protein stability index": "0.733 ± 0.079"},
      {"sequence": "RGALQQLREHTS", "protein stability index": "0.687 ± 0.055"},
      {"sequence": "RGASLFPTPLAF", "protein stability index": "0.742 ± 0.043"},
      {"sequence": "RGCCSVAFRCVV", "protein stability index": "0.712 ± 0.066"},
      {"sequence": "RGEHKDYFYVMT", "protein stability index": "0.651 ± 0.0076"},
      {"sequence": "RGEMGLAPTGGD", "protein stability index": "0.651 ± 0.044"},
      {"sequence": "RGFCGGLWRPGV", "protein stability index": "0.769 ± 0.013"},
      {"sequence": "RGGDIEVPSDQN", "protein stability index": "0.705 ± 0.019"},
      {"sequence": "RGGGCNGVSVEG", "protein stability index": "0.6899 ± 0.0027"},
      {"sequence": "RGGGGGGSRTGA", "protein stability index": "0.706 ± 0.026"},
      {"sequence": "RGGGGGVECRVG", "protein stability index": "0.655 ± 0.075"},
      {"sequence": "RGGGGPGWGSRG", "protein stability index": "0.684 ± 0.025"},
      {"sequence": "RGGGRRAWVWGG", "protein stability index": "0.675 ± 0.036"},
      {"sequence": "RGGGVWGKEDSQ", "protein stability index": "0.717 ± 0.052"},
      {"sequence": "RGGLDQVHKGFR", "protein stability index": "0.711 ± 0.086"},
      {"sequence": "RGGSGGRKCLGV", "protein stability index": "0.687 ± 0.0094"},
      {"sequence": "RGGSGGSCMRYV", "protein stability index": "0.678 ± 0.066"},
      {"sequence": "RGGTGGWKGVWV", "protein stability index": "0.71 ± 0.022"},
      {"sequence": "RGISAAAAPGEG", "protein stability index": "0.706 ± 0.024"},
      {"sequence": "RGKEREGGRQER", "protein stability index": "0.746 ± 0.045"},
      {"sequence": "RGLIVGMGAGMV", "protein stability index": "0.671 ± 0.015"},
      {"sequence": "RGLNIPRLSCRY", "protein stability index": "0.748 ± 0.008"},
      {"sequence": "RGPKDNGGSETS", "protein stability index": "0.713 ± 0.078"},
      {"sequence": "RGPPCPFPVPLP", "protein stability index": "0.74 ± 0.033"},
      {"sequence": "RGPRWETVSSCM", "protein stability index": "0.682 ± 0.027"},
      {"sequence": "RGRASVIWGGPG", "protein stability index": "0.659 ± 0.086"},
      {"sequence": "RGRDTETFSDNS", "protein stability index": "0.6901 ± 0.0054"},
      {"sequence": "RGRLRGPEPKMT", "protein stability index": "0.726 ± 0.078"},
      {"sequence": "RGRRGAGRKGGP", "protein stability index": "0.751 ± 0.15"},
      {"sequence": "RGRWLIVHCPTQ", "protein stability index": "0.605 ± 0.034"},
      {"sequence": "RGSGSGTRCRRS", "protein stability index": "0.682 ± 0.11"},
      {"sequence": "RGTGGGSESGVK", "protein stability index": "0.661 ± 0.063"},
      {"sequence": "RGTWAVGGGRGG", "protein stability index": "0.671 ± 0.065"},
      {"sequence": "RGVALWALYGAG", "protein stability index": "0.76502 ± 0.00052"},
      {"sequence": "RGVSRQVRTVDP", "protein stability index": "0.679 ± 0.03"},
      {"sequence": "RGVSVRLSLAYR", "protein stability index": "0.6216 ± 0.0048"},
      {"sequence": "RGWARGRQGCGG", "protein stability index": "0.726 ± 0.011"},
      {"sequence": "RGWWVLWGGGWG", "protein stability index": "0.551 ± 0.025"},
      {"sequence": "RHARAARDSPRR", "protein stability index": "0.705 ± 0.081"},
      {"sequence": "RHGFTNINGIKH", "protein stability index": "0.714 ± 0.012"},
      {"sequence": "RHGVQMAGLKRR", "protein stability index": "0.679 ± 0.019"},
      {"sequence": "RHLMNYEKRNAN", "protein stability index": "0.723 ± 0.053"},
      {"sequence": "RHNKVSPNARYN", "protein stability index": "0.661 ± 0.027"},
      {"sequence": "RHPSVLPLSILL", "protein stability index": "0.653 ± 0.054"},
      {"sequence": "RHSPGPLLTPAP", "protein stability index": "0.712 ± 0.045"},
      {"sequence": "RHTPPTTPLSLL", "protein stability index": "0.701 ± 0.096"},
      {"sequence": "RICIGSLHGASI", "protein stability index": "0.576 ± 0.019"},
      {"sequence": "RICPEVSSVLIR", "protein stability index": "0.682 ± 0.035"},
      {"sequence": "RIFFTCDSFLCV", "protein stability index": "0.611 ± 0.04"},
      {"sequence": "RIGICSTNTSLQ", "protein stability index": "0.722 ± 0.067"},
      {"sequence": "RIGYGEGWKKGG", "protein stability index": "0.695 ± 0.067"},
      {"sequence": "RIINRIDNKIEK", "protein stability index": "0.672 ± 0.0039"},
      {"sequence": "RIKKTRVVRQKM", "protein stability index": "0.547 ± 0.04"},
      {"sequence": "RILLSHGNSRSI", "protein stability index": "0.699 ± 0.013"},
      {"sequence": "RINKRKKKKDKG", "protein stability index": "0.6136 ± 0.00074"},
      {"sequence": "RIQIKIKRTKNK", "protein stability index": "0.638 ± 0.11"},
      {"sequence": "RIRRERRIGLKV", "protein stability index": "0.559 ± 0.0092"},
      {"sequence": "RISGDVNCLSPR", "protein stability index": "0.718 ± 0.066"},
      {"sequence": "RISGVEKPLLRV", "protein stability index": "0.663 ± 0.015"},
      {"sequence": "RITRVRNKEQSK", "protein stability index": "0.692 ± 0.016"}
    ]}
  ]
}
